In US20260002137:

Columns and labels:
Assay in all cases: cell_activity
[1] = test system: cysCreTEV (cyclized sCre with ENLYFQS site) (Escherichia phage P1?); conditions: 293T; uncleaved (mock); with TEVp GFP MFI similar to non-cyclized sCre
[2] = test system: ProCreHRV (cyclized sCre with LEVLFQGP site) (Escherichia phage P1?); conditions: 293T; without HRV 3C protease 5±1%; with HRVp 49±4%; FLEx.2 module
[3] = test system: ProCre-LRGAG (cyclized sCre with AVP site) (Escherichia phage P1?); conditions: 293T; without AVP 4.5±0.6%; with AVP 40±1%; FLEx module with mCherry removed
[4] = test system: sCre (truncated Cre, residues 19-343) (Escherichia phage P1?); conditions: 293T; by GFP MFI; similar % GFP+ cells as full-length

FLEx DiO cassette with loxP and lox2272 pairs
activity [1]: 3.2 % GFP+ cells
activity [2]: 5 % GFP+ cells
activity [3]: 4.5 % GFP+ cells
Cre recombination activity (GFP reporter MFI) (% of full-length Cre) [4]: 77
